Experimental data as given in the supplement of paper PMC9112550, “Optimization of the antimicrobial peptide Bac7 by deep mutational scanning” (BMC Biology, 2022).

Test system: Escherichia coli TOP10
Assay: shrunken log2 fold change of peptide-encoding DNA abundance (4.5 h post-induction vs induction); higher = less antimicrobial activity (less host growth inhibition)
Conditions: time post-induction: 4.5 h; library: site-saturation at positions 5, 18, 19, 20
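Further: peptides expressed intracellularly from a pBAD plasmid library in pooled LB shake-flask culture, induced with 0.3% L-arabinose, DNA abundance read by NGS, three biological replicates, DESeq2 with apeglm shrinkage.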

Row | Sequence | shrunken log2 fold change
1 | RRIRNRPPRLPRPRPRPRYPPRP | -0.121
2 | RRIRQRPPRLPRPRPRPGHNPRP | 0.0106
3 | RRIRTRPPRLPRPRPRPLGHPRP | -0.459
4 | RRIRGRPPRLPRPRPRPAFYPRP | 0.178
5 | RRIRERPPRLPRPRPRPQMWPRP | -0.0958
6 | RRIRLRPPRLPRPRPRPFMRPRP | 0.495
7 | RRIRWRPPRLPRPRPRPKVLPRP | 0.155
8 | RRIRYRPPRLPRPRPRPYDWPRP | -0.886
9 | RRIRWRPPRLPRPRPRPWWFPRP | 0.0217
10 | RRIRLRPPRLPRPRPRPKPCPRP | -0.158
11 | RRIRTRPPRLPRPRPRPIIGPRP | 0.0211
12 | RRIRCRPPRLPRPRPRPCAEPRP | 0.0802
13 | RRIRFRPPRLPRPRPRPAGSPRP | -0.139
14 | RRIRPRPPRLPRPRPRPLLGPRP | 0.191
15 | RRIRLRPPRLPRPRPRPNERPRP | -0.0191
16 | RRIRGRPPRLPRPRPRPGAQPRP | 1.19
17 | RRIRFRPPRLPRPRPRPSWTPRP | -0.561
18 | RRIRWRPPRLPRPRPRPQWYPRP | -0.28
19 | RRIRHRPPRLPRPRPRPGAPPRP | 0.384
20 | RRIRVRPPRLPRPRPRPVVKPRP | -0.214
21 | RRIRARPPRLPRPRPRPIGIPRP | 0.0254
22 | RRIRIRPPRLPRPRPRPQWDPRP | 0.92
23 | RRIRARPPRLPRPRPRPKRAPRP | 0.65
24 | RRIRCRPPRLPRPRPRPMLLPRP | 0.00507
25 | RRIRMRPPRLPRPRPRPAKVPRP | 0.303

Row | Sequence | shrunken log2 fold change
26 | RRIRHRPPRLPRPRPRPKTRPRP | -0.0214
27 | RRIRDRPPRLPRPRPRPMSSPRP | 0.0508
28 | RRIRMRPPRLPRPRPRPHRRPRP | 0.0631
29 | RRIRIRPPRLPRPRPRPDYPPRP | -0.584
30 | RRIRPRPPRLPRPRPRPSGNPRP | -0.273
31 | RRIRMRPPRLPRPRPRPKISPRP | 0.0938
32 | RRIRKRPPRLPRPRPRPSWEPRP | 0.153
33 | RRIRFRPPRLPRPRPRPPDAPRP | 0.451
34 | RRIRPRPPRLPRPRPRPFNQPRP | -0.695
35 | RRIRNRPPRLPRPRPRPDVAPRP | 0.285
36 | RRIRHRPPRLPRPRPRPSKAPRP | -0.463
37 | RRIRCRPPRLPRPRPRPDTSPRP | -0.365
38 | RRIRIRPPRLPRPRPRPFCLPRP | -0.739
39 | RRIRFRPPRLPRPRPRPWIKPRP | -0.187
40 | RRIRIRPPRLPRPRPRPCKTPRP | -0.168
41 | RRIRLRPPRLPRPRPRPWCSPRP | -1.02
42 | RRIRERPPRLPRPRPRPCRYPRP | -0.00318
43 | RRIRGRPPRLPRPRPRPKIWPRP | 0.64
44 | RRIRIRPPRLPRPRPRPIVRPRP | -0.339
45 | RRIRRRPPRLPRPRPRPLCHPRP | 0.182
46 | RRIRHRPPRLPRPRPRPQKDPRP | 0.0122
47 | RRIRLRPPRLPRPRPRPDMSPRP | -0.428
48 | RRIRGRPPRLPRPRPRPDLTPRP | 0.219
49 | RRIRRRPPRLPRPRPRPEHRPRP | 0.343
50 | RRIRVRPPRLPRPRPRPRGGPRP | 0.609

Row | Sequence | shrunken log2 fold change
51 | RRIRKRPPRLPRPRPRPFKCPRP | -0.0191
52 | RRIRVRPPRLPRPRPRPIKEPRP | -0.327
53 | RRIRIRPPRLPRPRPRPPTAPRP | 0.335
54 | RRIRPRPPRLPRPRPRPFPEPRP | 0.0208
55 | RRIRHRPPRLPRPRPRPFQQPRP | -0.0263
56 | RRIRVRPPRLPRPRPRPDCIPRP | -0.161
57 | RRIRARPPRLPRPRPRPTTFPRP | 0.177
58 | RRIRSRPPRLPRPRPRPKFKPRP | -0.121
59 | RRIRLRPPRLPRPRPRPYNVPRP | -0.119
60 | RRIRSRPPRLPRPRPRPVYEPRP | -0.617
61 | RRIRTRPPRLPRPRPRPLDDPRP | 0.115
62 | RRIRFRPPRLPRPRPRPCLLPRP | -1.19
63 | RRIRYRPPRLPRPRPRPFNWPRP | -0.238
64 | RRIRPRPPRLPRPRPRPVTWPRP | -0.0661
65 | RRIRMRPPRLPRPRPRPVADPRP | 3
66 | RRIRRRPPRLPRPRPRPNWIPRP | 0.259
67 | RRIRGRPPRLPRPRPRPLVNPRP | 0.4
68 | RRIRDRPPRLPRPRPRPNQEPRP | -0.0564
69 | RRIRFRPPRLPRPRPRPRCRPRP | 0.109
70 | RRIRKRPPRLPRPRPRPMVFPRP | -0.0194
71 | RRIRSRPPRLPRPRPRPLKNPRP | -0.347
72 | RRIRIRPPRLPRPRPRPQMSPRP | -0.0696
73 | RRIRMRPPRLPRPRPRPDMCPRP | 1.86
74 | RRIRKRPPRLPRPRPRPEHPPRP | 0.822
75 | RRIRIRPPRLPRPRPRPAMVPRP | -0.547

Row | Sequence | shrunken log2 fold change
76 | RRIRDRPPRLPRPRPRPREIPRP | -0.00904
77 | RRIRPRPPRLPRPRPRPRDQPRP | 0.0809
78 | RRIRSRPPRLPRPRPRPGHYPRP | -0.645
79 | RRIRFRPPRLPRPRPRPVMVPRP | -1.14
80 | RRIRERPPRLPRPRPRPDTWPRP | -0.295
81 | RRIRERPPRLPRPRPRPACYPRP | -0.308
82 | RRIRYRPPRLPRPRPRPYMTPRP | -0.271
83 | RRIRRRPPRLPRPRPRPTEAPRP | 0.0804
84 | RRIRFRPPRLPRPRPRPNIDPRP | -0.463
85 | RRIRLRPPRLPRPRPRPQRNPRP | -0.789
86 | RRIRKRPPRLPRPRPRPWAGPRP | 0.115
87 | RRIRERPPRLPRPRPRPCALPRP | -0.319
88 | RRIRIRPPRLPRPRPRPKIMPRP | -0.549
89 | RRIRMRPPRLPRPRPRPCPQPRP | 0.0219
90 | RRIRTRPPRLPRPRPRPQAMPRP | 0.00573
91 | RRIRFRPPRLPRPRPRPMPPPRP | 0.55
92 | RRIRRRPPRLPRPRPRPQCIPRP | -0.0103
93 | RRIRWRPPRLPRPRPRPKYWPRP | 0.0306
94 | RRIRHRPPRLPRPRPRPPQWPRP | 0.0657
95 | RRIRMRPPRLPRPRPRPQKHPRP | 0.159
96 | RRIRIRPPRLPRPRPRPYRPPRP | -0.0527
97 | RRIRCRPPRLPRPRPRPWTYPRP | -0.015
98 | RRIRKRPPRLPRPRPRPRNIPRP | -0.116
99 | RRIRIRPPRLPRPRPRPAHWPRP | 0.396
100 | RRIRFRPPRLPRPRPRPFAGPRP | 0.0728

Row | Sequence | shrunken log2 fold change
101 | RRIRARPPRLPRPRPRPRQGPRP | 0.605
102 | RRIRVRPPRLPRPRPRPQKSPRP | -0.162
103 | RRIRYRPPRLPRPRPRPRICPRP | 0.00835
104 | RRIRMRPPRLPRPRPRPWWAPRP | -0.0423
105 | RRIRTRPPRLPRPRPRPLRNPRP | -0.0969
106 | RRIRARPPRLPRPRPRPFQIPRP | -0.0627
107 | RRIRIRPPRLPRPRPRPTSAPRP | 0.065
108 | RRIRLRPPRLPRPRPRPIQVPRP | -0.072
109 | RRIRQRPPRLPRPRPRPTPWPRP | 0.619
110 | RRIRSRPPRLPRPRPRPCLLPRP | -0.284
111 | RRIRWRPPRLPRPRPRPNVGPRP | -0.129
112 | RRIRCRPPRLPRPRPRPVSIPRP | -0.549
113 | RRIRERPPRLPRPRPRPYISPRP | -0.977
114 | RRIRPRPPRLPRPRPRPDPGPRP | 0.0845
115 | RRIRSRPPRLPRPRPRPIEPPRP | 0.0268
116 | RRIRKRPPRLPRPRPRPPWCPRP | 0.401
117 | RRIRFRPPRLPRPRPRPFRCPRP | -0.227
118 | RRIRERPPRLPRPRPRPDQWPRP | 0.189
119 | RRIRLRPPRLPRPRPRPYMCPRP | -0.252
120 | RRIRKRPPRLPRPRPRPKKTPRP | 0.0396
121 | RRIRQRPPRLPRPRPRPIKCPRP | -0.00607
122 | RRIRARPPRLPRPRPRPPKHPRP | 0.472
123 | RRIRWRPPRLPRPRPRPILIPRP | -0.037
124 | RRIRVRPPRLPRPRPRPLYDPRP | -0.257
125 | RRIRDRPPRLPRPRPRPGTEPRP | 0.974
